B1: Serine/threonine-protein kinase TBK1 (Homo sapiens), Q9UHD2 (parent)
chain: MQSTSNHLWLLSDILGQGATANVFRGRHKKTGDLFAIKVFNNISFLRPVDVQMREFEVLKKLNHKNIVKLFAIEEETTTRHKVLIMEFCPCGSLYTVLEEPSNAYGLPESEFLIVLRDVVGGMNHLRENGIVHRDIKPGNIMRVIGEDGQSVYKLTDFGAARELEDDEQFVSLYGTEEYLHPDMYERAVLRKDHQKKYGATVDLWSIGVTFYHAATGSLPFRPFEGPRRNKEVMYKIITGKPSGAISGVQKAENGPIDWSGDMPVSCSLSRGLQVLLTPVLANILEADQEKCWGFDQFFAETSDILHRMVIHVFSLQQMTAHKIYIHSYNTATIFHELVYKQTKIISSNQELIYEGRRLVLEPGRLAQHFPKTTEENPIFVVSREPLNTIGLIYEKISLPKVHPRYDLDGDASMAKAITGVVCYACRIASTLLLYQELMRKGIRWLIELIKDDYNETVHKKTEVVITLDFCIRNIEKTVKVYEKLMKINLEAAELGEISDIHTKLLRLSSSQGTIETSLQDIDSRLSPGGSLADAWAHQEGTHPKDRNVEKLQVLLNCMTEIYYQFKKDKAERRLAYNEEQIHKFDKQKLYYHATKAMTHFTDECVKKYEAFLNKSEEWIRKMLHLRKQLLSLTNQCFDIEEEVSKYQEYTNELQETLPQKMFTASSGIKHTMTPIYPSSNTLVEMTLGMKKLKEEMEGVVKELAENNHILERFGSLTMDGGLRNVDCL
partner: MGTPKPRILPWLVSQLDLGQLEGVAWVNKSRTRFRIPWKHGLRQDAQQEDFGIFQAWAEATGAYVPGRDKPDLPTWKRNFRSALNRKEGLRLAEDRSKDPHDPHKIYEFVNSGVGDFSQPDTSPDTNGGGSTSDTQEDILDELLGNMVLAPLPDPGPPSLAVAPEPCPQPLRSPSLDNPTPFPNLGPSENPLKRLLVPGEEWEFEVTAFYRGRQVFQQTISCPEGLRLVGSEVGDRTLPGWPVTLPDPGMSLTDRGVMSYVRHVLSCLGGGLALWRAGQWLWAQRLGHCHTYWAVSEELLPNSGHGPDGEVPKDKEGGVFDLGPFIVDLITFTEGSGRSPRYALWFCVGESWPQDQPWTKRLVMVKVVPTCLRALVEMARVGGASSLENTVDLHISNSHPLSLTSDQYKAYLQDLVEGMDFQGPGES
B2: Serine/threonine-protein kinase TBK1 (Homo sapiens), Q9UHD2 (parent)
chain: B1 chain

Variants of: B1
Settings: with irf3_human IRF3, Q14653

Row | effect of a mutation on the interaction | Variant
1 | disrupting interaction strength | M559R
2 | decreasing interaction strength | R308Q
3 | decreasing interaction strength | E696K
4 | increasing interaction strength | R47H
5 | disrupting interaction strength | R357Q

Variants of: B2
Settings: with optn_human OPTN

Row | effect of a mutation on the interaction | Variant
6 | disrupting interaction strength | M559R
7 | with no effect | R308Q
8 | decreasing interaction strength | R357Q
9 | increasing interaction strength | R47H
10 | with no effect | K38A

Variants of: B2
Settings: with optn_human OPTN
Remark: another data set of the same source

Row | effect of a mutation on the interaction | Variant
11 | disrupting interaction strength | R357Q
12 | disrupting interaction strength | E696K

Source: IntAct's records for PubMed 25803835
